T1: human type I IFN receptor on HEK-Blue IFN-α/β cells (human, UniProt P17181 28-557; P48551 27-515)
T1 sequence (looked up) 1: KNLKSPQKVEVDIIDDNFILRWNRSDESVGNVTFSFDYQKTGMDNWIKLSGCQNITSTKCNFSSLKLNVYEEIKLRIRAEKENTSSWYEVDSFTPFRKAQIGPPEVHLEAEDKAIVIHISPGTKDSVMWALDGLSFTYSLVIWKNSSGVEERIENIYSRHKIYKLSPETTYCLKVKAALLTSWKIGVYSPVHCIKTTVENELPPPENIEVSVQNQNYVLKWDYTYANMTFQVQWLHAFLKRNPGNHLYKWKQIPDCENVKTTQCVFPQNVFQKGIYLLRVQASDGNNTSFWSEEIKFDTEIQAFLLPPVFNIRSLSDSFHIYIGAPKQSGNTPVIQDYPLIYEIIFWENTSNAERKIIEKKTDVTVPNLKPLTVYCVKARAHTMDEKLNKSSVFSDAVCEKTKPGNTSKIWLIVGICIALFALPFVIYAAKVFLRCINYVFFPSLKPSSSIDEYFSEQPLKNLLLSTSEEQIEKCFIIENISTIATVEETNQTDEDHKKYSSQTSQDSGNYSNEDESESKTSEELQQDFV
T1 sequence (looked up) 2: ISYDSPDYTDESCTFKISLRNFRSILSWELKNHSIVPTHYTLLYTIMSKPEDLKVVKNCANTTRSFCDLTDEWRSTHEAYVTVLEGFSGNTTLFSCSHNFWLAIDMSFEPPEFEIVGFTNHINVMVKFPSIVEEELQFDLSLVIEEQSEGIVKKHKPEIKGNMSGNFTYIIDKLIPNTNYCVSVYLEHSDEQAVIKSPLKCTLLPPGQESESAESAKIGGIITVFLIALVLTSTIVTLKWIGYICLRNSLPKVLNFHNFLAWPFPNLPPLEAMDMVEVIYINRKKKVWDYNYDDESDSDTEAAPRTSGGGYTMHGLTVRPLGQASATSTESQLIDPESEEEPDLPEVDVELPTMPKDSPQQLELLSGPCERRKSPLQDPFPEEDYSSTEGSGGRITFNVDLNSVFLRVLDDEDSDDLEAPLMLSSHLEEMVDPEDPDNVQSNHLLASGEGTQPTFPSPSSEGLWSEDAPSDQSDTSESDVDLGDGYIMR


Key:
[1] = target: human CD40 (human, UniProt P25942 21-277); assay: cell-based or functional assay
[2] = target: T1, human type I IFN receptor on HEK-Blue …; assay: cell-based or functional assay

Chain of human CD40 (P25942 21-277): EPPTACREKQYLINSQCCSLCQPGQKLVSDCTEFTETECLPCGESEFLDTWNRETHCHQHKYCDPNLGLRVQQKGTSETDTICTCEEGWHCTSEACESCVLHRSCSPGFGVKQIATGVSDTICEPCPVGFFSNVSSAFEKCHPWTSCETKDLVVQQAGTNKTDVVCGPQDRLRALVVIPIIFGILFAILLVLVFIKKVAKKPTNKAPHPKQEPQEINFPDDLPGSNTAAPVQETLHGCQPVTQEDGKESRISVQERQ

Binder | CD40 EC50 (HEK-Blue CD40L NFκB-SEAP reporter cells) [1] [ng/mL] | IFNβ EC50 (HEK-Blue IFN-α/β SEAP reporter cells) [2] [ng/mL] | IFNε EC50 (HEK-Blue IFN-α/β SEAP reporter cells) [2] [ng/mL]
IFA1 (antibody, human IgG2, kappa) light: DIQMTQSPSSVSASVGDRVTITCRASQGIYSWLAWYQQKPGKAPNLLIYTASTLQSGVPSRFSGSGSGTDFTLTISSLQPEDFATYYCQQANIFPLTFGGGTKVEIKRTVAAPSVFIFPPSDEQLKSGTASVVCLLNNFYPREAKVQWKVDNALQSGNSQESVTEQDSKDSTYSLSSTLTLSKADYEKHKVYACEVTHQGLSSPVTKSFNRGECAEAAAKEAAAKAMSYNLLGFLQRSSNFQCQKLLWQLNGRLEYCLKDRMNFDIPEEIKQLQQFQKEDAALTIYEMLQNIFAIFRQDSSSTGWNETIVENLLANVYHQINHLKTVLEEKLEKEDFTRGKLMSSLHLKRYYGRILHYLKAKEYSHCAWTIVRVEILRNFYFINRLTGYLRN heavy: not shown | 74.1 | 1.64 | –
IFA2 (antibody, human IgG2, kappa) light: DIQMTQSPSSVSASVGDRVTITCRASQGIYSWLAWYQQKPGKAPNLLIYTASTLQSGVPSRFSGSGSGTDFTLTISSLQPEDFATYYCQQANIFPLTFGGGTKVEIKRTVAAPSVFIFPPSDEQLKSGTASVVCLLNNFYPREAKVQWKVDNALQSGNSQESVTEQDSKDSTYSLSSTLTLSKADYEKHKVYACEVTHQGLSSPVTKSFNRGECAEAAAKEAAAKAMSYNLLGFLQRSSNFQSQKLLWQLNGRLEYCLKDRMNFDIPEEIKQLQQFQKEDAALTIYEMLQNIFAIFRQDSSSTGWNETIVENLLANVYHQINHLKTVLEEKLEKEDFTRGKLMSSLHLKRYYGRILHYLKAKEYSHCAWTIVRVEILRNFYFINRLTGYLRN heavy: not shown | 111 | 0.14 | –
IFA126 (antibody, human IgG2, kappa) light: DIQMTQSPSSVSASVGDRVTITCRASQGIYSWLAWYQQKPGKAPNLLIYTASTLQSGVPSRFSGSGSGTDFTLTISSLQPEDFATYYCQQANIFPLTFGGGTKVEIKRTVAAPSVFIFPPSDEQLKSGTASVVCLLNNFYPREAKVQWKVDNALQSGNSQESVTEQDSKDSTYSLSSTLTLSKADYEKHKVYACEVTHQGLSSPVTKSFNRGECGGGGSGGGGSGGGGSMSYNLLGFLQRSSNFQSQKLLWQLNGRLEYCLKDRMNFDIPEEIKQLQQFQKEDAALTIYEMLQNIFAIFRQDSSSTGWNETIVENLLANVYHQINHLKTVLEEKLEKEDFTRGKLMSSLHLKRYYGRILHYLKAKEYSHCAWTIVRVEILRNFYFINRLTGYLRN heavy: not shown | 364 | 2.08 | –
IFA19 (antibody, human IgG2, kappa) light: DIQMTQSPSSVSASVGDRVTITCRASQGIYSWLAWYQQKPGKAPNLLIYTASTLQSGVPSRFSGSGSGTDFTLTISSLQPEDFATYYCQQANIFPLTFGGGTKVEIKRTVAAPSVFIFPPSDEQLKSGTASVVCLLNNFYPREAKVQWKVDNALQSGNSQESVTEQDSKDSTYSLSSTLTLSKADYEKHKVYACEVTHQGLSSPVTKSFNRGECSGGTSGSTSGTGSMSYNLLGFLQRSSNFQSQKLLWQLNGRLEYCLKDRMNFDIPEEIKQLQQFQKEDAALTIYEMLQNIFAIFRQDSSSTGWNETIVENLLANVYHQINHLKTVLEEKLEKEDFTRGKLMSSLHLKRYYGRILHYLKAKEYSHCAWTIVRVEILRNFYFINRLTGYLRN heavy: not shown | 110 | 1.3 | –
IFA10 (antibody, human IgG2, kappa) heavy: not shown light: DIQMTQSPSSVSASVGDRVTITCRASQGIYSWLAWYQQKPGKAPNLLIYTASTLQSGVPSRFSGSGSGTDFTLTISSLQPEDFATYYCQQANIFPLTFGGGTKVEIKRTVAAPSVFIFPPSDEQLKSGTASVVCLLNNFYPREAKVQWKVDNALQSGNSQESVTEQDSKDSTYSLSSTLTLSKADYEKHKVYACEVTHQGLSSPVTKSFNRGEC | 26.5 | 4.5 | –
IFA49 (antibody, human IgG2, kappa) heavy: not shown light: DIQMTQSPSSVSASVGDRVTITCRASQGIYSWLAWYQQKPGKAPNLLIYTASTLQSGVPSRFSGSGSGTDFTLTISSLQPEDFATYYCQQANIFPLTFGGGTKVEIKRTVAAPSVFIFPPSDEQLKSGTASVVCLLNNFYPREAKVQWKVDNALQSGNSQESVTEQDSKDSTYSLSSTLTLSKADYEKHKVYACEVTHQGLSSPVTKSFNRGEC | 65.8 | – | 78.2
IFA11 (antibody, human IgG2, kappa) heavy: not shown light: DIQMTQSPSSVSASVGDRVTITCRASQGIYSWLAWYQQKPGKAPNLLIYTASTLQSGVPSRFSGSGSGTDFTLTISSLQPEDFATYYCQQANIFPLTFGGGTKVEIKRTVAAPSVFIFPPSDEQLKSGTASVVCLLNNFYPREAKVQWKVDNALQSGNSQESVTEQDSKDSTYSLSSTLTLSKADYEKHKVYACEVTHQGLSSPVTKSFNRGEC | 42.8 | 1.78 | –
IFA9 (antibody, human IgG2, kappa) heavy: not shown light: DIQMTQSPSSVSASVGDRVTITCRASQGIYSWLAWYQQKPGKAPNLLIYTASTLQSGVPSRFSGSGSGTDFTLTISSLQPEDFATYYCQQANIFPLTFGGGTKVEIKRTVAAPSVFIFPPSDEQLKSGTASVVCLLNNFYPREAKVQWKVDNALQSGNSQESVTEQDSKDSTYSLSSTLTLSKADYEKHKVYACEVTHQGLSSPVTKSFNRGEC | 42.6 | 0.7 | –
IFA8 (antibody, human IgG2, kappa) heavy: not shown light: DIQMTQSPSSVSASVGDRVTITCRASQGIYSWLAWYQQKPGKAPNLLIYTASTLQSGVPSRFSGSGSGTDFTLTISSLQPEDFATYYCQQANIFPLTFGGGTKVEIKRTVAAPSVFIFPPSDEQLKSGTASVVCLLNNFYPREAKVQWKVDNALQSGNSQESVTEQDSKDSTYSLSSTLTLSKADYEKHKVYACEVTHQGLSSPVTKSFNRGEC | 39.7 | 2.9 | –
IFA20 (antibody, human IgG2, kappa) light: DIQMTQSPSSVSASVGDRVTITCRASQGIYSWLAWYQQKPGKAPNLLIYTASTLQSGVPSRFSGSGSGTDFTLTISSLQPEDFATYYCQQANIFPLTFGGGTKVEIKRTVAAPSVFIFPPSDEQLKSGTASVVCLLNNFYPREAKVQWKVDNALQSGNSQESVTEQDSKDSTYSLSSTLTLSKADYEKHKVYACEVTHQGLSSPVTKSFNRGECAEAAAKEAAAKAAEAAAKEAAAKAMSYNLLGFLQRSSNFQSQKLLWQLNGRLEYCLKDRMNFDIPEEIKQLQQFQKEDAALTIYEMLQNIFAIFRQDSSSTGWNETIVENLLANVYHQINHLKTVLEEKLEKEDFTRGKLMSSLHLKRYYGRILHYLKAKEYSHCAWTIVRVEILRNFYFINRLTGYLRN heavy: not shown | 182 | 2.34 | –
IFA12 (antibody, human IgG2, kappa) light: DIQMTQSPSSVSASVGDRVTITCRASQGIYSWLAWYQQKPGKAPNLLIYTASTLQSGVPSRFSGSGSGTDFTLTISSLQPEDFATYYCQQANIFPLTFGGGTKVEIKRTVAAPSVFIFPPSDEQLKSGTASVVCLLNNFYPREAKVQWKVDNALQSGNSQESVTEQDSKDSTYSLSSTLTLSKADYEKHKVYACEVTHQGLSSPVTKSFNRGECPAPAMSYNLLGFLQRSSNFQCQKLLWQLNGRLEYCLKDRMNFDIPEEIKQLQQFQKEDAALTIYEMLQNIFAIFRQDSSSTGWNETIVENLLANVYHQINHLKTVLEEKLEKEDFTRGKLMSSLHLKRYYGRILHYLKAKEYSHCAWTIVRVEILRNFYFINRLTGYLRN heavy: not shown | 105 | 3.64 | –
IFA13 (antibody, human IgG2, kappa) light: DIQMTQSPSSVSASVGDRVTITCRASQGIYSWLAWYQQKPGKAPNLLIYTASTLQSGVPSRFSGSGSGTDFTLTISSLQPEDFATYYCQQANIFPLTFGGGTKVEIKRTVAAPSVFIFPPSDEQLKSGTASVVCLLNNFYPREAKVQWKVDNALQSGNSQESVTEQDSKDSTYSLSSTLTLSKADYEKHKVYACEVTHQGLSSPVTKSFNRGECPAPAMSYNLLGFLQRSSNFQSQKLLWQLNGRLEYCLKDRMNFDIPEEIKQLQQFQKEDAALTIYEMLQNIFAIFRQDSSSTGWNETIVENLLANVYHQINHLKTVLEEKLEKEDFTRGKLMSSLHLKRYYGRILHYLKAKEYSHCAWTIVRVEILRNFYFINRLTGYLRN heavy: not shown | 192 | 0.7 | –

— patent publication US20250320302A1 (EVOTEC INTERNATIONAL, published 2025)
